Residue numbers refer to the chain shown, from its start. *: point of attachment. βGlcNAc = CC(=O)N[C@@H]1[C@@H](O)[C@H](O)[C@@H](CO)O[C@H]1*
Experiments:
hOGA = target: T1, hOGA (Homo sapiens, UniProt O60502); assay: hOGA glycopeptide hydrolysis, substrate competition assay with 4MU-GlcNAc reporter; assay type: biochemical; set-up: GST (N); made in house; host or cells: transiently transfected HEK293 cells; conditions: wild-type full-length hOGA; competition with 4MU-GlcNAc reporter substrate; 37°C, 50 mM citrate-phosphate buffer pH 7.4, 0.1 mg/ml BSA; triplicate; ± error of curve-fit; read-out: Michaelis constant (KM) of glycopeptide substrate for hOGA
T1 sequence (O60502 1-916): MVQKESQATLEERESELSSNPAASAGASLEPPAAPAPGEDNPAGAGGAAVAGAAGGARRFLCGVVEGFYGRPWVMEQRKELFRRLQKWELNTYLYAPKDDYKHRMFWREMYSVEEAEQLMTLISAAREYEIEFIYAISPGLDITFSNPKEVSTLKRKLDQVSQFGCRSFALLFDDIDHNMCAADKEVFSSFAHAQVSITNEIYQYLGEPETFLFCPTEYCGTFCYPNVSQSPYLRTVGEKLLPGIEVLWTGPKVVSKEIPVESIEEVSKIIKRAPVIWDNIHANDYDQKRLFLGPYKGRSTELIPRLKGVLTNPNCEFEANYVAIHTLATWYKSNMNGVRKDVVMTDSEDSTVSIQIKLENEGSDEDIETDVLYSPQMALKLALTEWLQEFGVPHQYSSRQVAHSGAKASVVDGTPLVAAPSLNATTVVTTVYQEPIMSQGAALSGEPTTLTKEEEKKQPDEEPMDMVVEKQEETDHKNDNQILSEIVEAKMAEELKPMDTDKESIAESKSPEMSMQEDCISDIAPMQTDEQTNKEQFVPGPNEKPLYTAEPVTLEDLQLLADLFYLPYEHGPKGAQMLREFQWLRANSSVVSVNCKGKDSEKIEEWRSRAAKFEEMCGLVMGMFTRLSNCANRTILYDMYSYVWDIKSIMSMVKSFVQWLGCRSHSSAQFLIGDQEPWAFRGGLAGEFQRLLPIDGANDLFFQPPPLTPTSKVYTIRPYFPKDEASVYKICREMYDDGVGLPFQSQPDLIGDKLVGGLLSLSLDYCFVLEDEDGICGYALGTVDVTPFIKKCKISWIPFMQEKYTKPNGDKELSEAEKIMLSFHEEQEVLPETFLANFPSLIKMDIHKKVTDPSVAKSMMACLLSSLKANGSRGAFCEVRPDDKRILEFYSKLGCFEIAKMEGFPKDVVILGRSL
Description: Protein was expressed in transiently transfected HEK293 cells and purified via glutathione sepharose affinity chromatography.
hOGA and CpOGA glycopeptide hydrolysis assays were carried out as described previously ([Dorfmueller et al., 2006; Schimpl et al., 2010]) using multisubstrate enzyme kinetics with the fluorigenic pseudosubstrate 4MU-GlcNAc as the reporter substrate. […] Reactions were performed at 37°C in 50 mM citrate-phosphate buffer (pH 7.4) and 0.1 mg/ml BSA. Experiments were performed in triplicate, and data were analyzed and plotted with GraphPad PRISM.

[1] = target: T2, human O-GlcNAcase (hOGA), wild-type (human) (UniProt O60502)
T2 sequence: T1 sequence (O60502 1-916)

[2] = target: T3, human O-GlcNAcase (hOGA) Y69F (human) (UniProt O60502)
T3 sequence: T1 sequence (O60502 1-916) with Y69F

[3] = target: T4, human O-GlcNAcase (hOGA) Y69K (human) (UniProt O60502)
T4 sequence: T1 sequence (O60502 1-916) with Y69K

[4] = target: T5, human O-GlcNAcase (hOGA) Y69Q (human) (UniProt O60502)
T5 sequence: T1 sequence (O60502 1-916) with Y69Q

[5] = target: T6, human O-GlcNAcase (hOGA) Y69S (human) (UniProt O60502)
T6 sequence: T1 sequence (O60502 1-916) with Y69S

[6] = target: T2, human O-GlcNAcase (hOGA), wild-type (human); remark: listed apart in the source

QLVVS(O-GlcNAc)TPPPG [altered p53 glycopeptide with intramolecular hydrogen bond disrupted]
Km (hOGA): 1800 µM

QLVVS(O-GlcNAc)VPPPG [altered p53 glycopeptide with intramolecular hydrogen bond disrupted]
Km (hOGA): 3700 µM

VPHS(O-GlcNAc)SAQ
Km (hOGA): 810 ± 140 µM

p53 peptide (Ser149) QLVDS(O-GlcNAc)TPPPG, original sequence of Table 2
KM (hOGA) of the glycopeptide substrate (substrate competition assay with 4MU-GlcNAc as reporter substrate) [1]: 21 µM

VPHSSAQ [TAB1 peptide (Ser395) VPHS(O-GlcNAc)SAQ, altered sequence]
KM (hOGA) of the glycopeptide substrate (substrate competition assay with 4MU-GlcNAc as reporter substrate) [1]: 810 µM

VAHSGAK [hOGA peptide VAHS(O-GlcNAc)GAK]
KM of the glycopeptide substrate (substrate competition assay with 4MU-GlcNAc as reporter substrate) [2]: 1200 µM
KM of the glycopeptide substrate (substrate competition assay with 4MU-GlcNAc as reporter substrate) [3]: > 4000 µM
KM of the glycopeptide substrate (substrate competition assay with 4MU-GlcNAc as reporter substrate) [4]: > 4000 µM
KM of the glycopeptide substrate (substrate competition assay with 4MU-GlcNAc as reporter substrate) [5]: > 4000 µM

B1: p53 peptide QLWVDS(O-GlcNAc)TPPPG (peptide)
peptide: Ac-QLWVDS(βGlcNAc)TPPPG-NH2
SMILES: CC(=O)N[C@H]1[C@H](OC[C@H](NC(=O)[C@H](CC(=O)O)NC(=O)[C@@H](NC(=O)[C@H](Cc2c[nH]c3ccccc23)NC(=O)[C@H](CC(C)C)NC(=O)[C@H](CCC(N)=O)NC(C)=O)C(C)C)C(=O)N[C@H](C(=O)N2CCC[C@H]2C(=O)N2CCC[C@H]2C(=O)N2CCC[C@H]2C(=O)NCC(N)=O)[C@@H](C)O)O[C@H](CO)[C@@H](O)[C@@H]1O
KM of the glycopeptide substrate (substrate competition assay with 4MU-GlcNAc as reporter substrate) [6]: 21 µM

B2: TAB1 peptide (Ser395) VPYS(O-GlcNAc)SAQ, original sequence (peptide)
peptide: Ac-VPYS(βGlcNAc)SAQ-NH2
SMILES: CC(=O)N[C@H]1[C@H](OC[C@H](NC(=O)[C@H](Cc2ccc(O)cc2)NC(=O)[C@@H]2CCCN2C(=O)[C@@H](NC(C)=O)C(C)C)C(=O)N[C@@H](CO)C(=O)N[C@@H](C)C(=O)N[C@@H](CCC(N)=O)C(N)=O)O[C@H](CO)[C@@H](O)[C@@H]1O
KM (hOGA) of the glycopeptide substrate (substrate competition assay with 4MU-GlcNAc as reporter substrate) [1]: 4100 µM

— article PMC3476531, “Synergy of Peptide and Sugar in O-GlcNAcase Substrate Recognition” (Chemistry & Biology, 2012)
